From US20090029370A1 (TRUSTEES OF BOSTON UNIVERSITY, published 2009) come the findings set out here.

The assay has as its target T1, alpha-fragment of EGFP (alphaCys-fragment, 1-158) without oligonucleotide (Aequorea victoria, UniProt P42212 1-158 = GFP).
T1 construct: range 1-158; also called α-subunit of EGFP
Nature of the assay: fluorescence spectra after mixing the fragments in vitro.

B1: beta-fragment of EGFP (betaCys-fragment, 159-234 aa) without oligonucleotide (other)
chain: not shown
notes: range 159-234; also called β-subunit of EGFP
Consider B1, for which the binding result is “no binding”.
